Reference: the DeepSol protein solubility set

Test: soluble on expression in E. coli; label from the status in PepcDB or PDB records
For “MKESAASVAVRPQLREVFERFPADAHRTIEDEIHEMMKCYAFDDAIFLAELHYETDKSNNSESLLLYADCLYRANKKEECYGLLSSVKLSGARLFYLLARVSYDLNKIDDCRGALFEHDDGVIRKDILEEPRVASHANLLHAQMLCDESYMDLALESCQKSLDENILLWSAIITYLRFGGHDLAHTFEKHHRKSNGLYLDSPASSLKSETPSPNVPGPSSSSAASTAEPSRLESSVRRSTRGTIASANRETRNTTSNITPRQSTPGSTPSRINPTAPRKSSRISEMTTRRTESSVTGSRSSLFTEPERPHTRATHSSRNRANAALNSDTENSNASNTRTRSGIASVTRGSSSSQRTNPVRTSIRIADAAAAANKTAKTLSQRRRNEKQPLVSRNSNLARSLSGSTNSVASTASERPSEDEVSQINPPLPSVASSLNNDEPMDIVDGVYDPEYKKLFDVYQHIALIEESISTYNWRSADALFAKLDRDIILNTSMVRLQLGRACFEQSEYRECRNILDDLHKRRKWKVDGTELLSTSMWHLQDTHALSALSQILTTESRERPQSWCAAGNCFSLQRQHTQAIECMERAIQLDKRFAYAYTLLGHELIVQDELDKAAGSFRSALLLSPRDYRAWYGLGLVHLKKEQNLTALTNIQKAVNINPTNRAMLCTLSQIEQQRGQIDTALVLIDRALTLNPLDVACRFNRSRLLFEANRNEECLVELDKLKASSPDEAFIFHLLARVHRRMGNTHLALLNYSWAAELDPRGEQNITDSNVINREEYEDDEYGSPV”, the “soluble on expression in E. coli” value was “not soluble”.
For “MKFCSQCGGEVILRIPEGDTLPRYICPKCHTIHYQNPKVIVGCIPEWENKVLLCKRAIAPYRGKWTLPAGFMENNETLVQGAARETLEEANARVEIRELYAVYSLPHISQVYMLFRAKLLDLDFFPGIESLEVRLFGEQEIPWNDIAFRVIHDPLKRYMEERHHGQPAFHLGIINKPQAGSNSNE”, the “soluble on expression in E. coli” value was “soluble”.
In the case of “MKFDVIIVGAGPGGMFAAYKLAGKLNTAIFEMGRDISKRKCPSDLSESYCTKCNPCNITSGVGGAGGLSDGKLNYVHPEYPSSFSVGGDFDFLDPNYLIEKMNEVDEIFLKHGAPDELYGDDLEKIEDFLKRANAAGIEFVPLRQRHVGSDELPKVVKSIEDKLKKEGVKIYTRKTVVDIDPERKVVRTEKGEEFGYDYLIIAVGRSGASWLEKWARDYNLEVAENSKAIDVGVRVEVPASIMDDITSAIYDPKLRVITKRHDDYMRTFCTCPRGWVIREDYGDFCLVNGHSKAKEKSSNTNFALLGHYEFTEPFDEPNEWGRDLARITTKLGGGNPIVQRLKDLRLGRRSTESRIKNNRLVQPTLKTAIPGDISLAYPGRAIDDILDALERLDKVIPGVADDSTLLYAPEVKFYSLKLKVDEWMKTNIPYIYAIGDGAGVSRGIVGAAVTGLIAAEGILRERGMELEHHHHHH”, the “soluble on expression in E. coli” value is reported as “soluble”.
For “MKFEAIAVEKIPLIHEGDNLPSIICEKIGLQDRDIMIIASTIVAKAEGEIFRLEDITPGEEALEIAARTGKDPRFIQAVLSKSREVFVETPFMLVTTLAGHTCVNAGIDESNIENGFLLYPPENPDASALKIGKELEKLSGKKLSIIITDTNGRAFKIGQTGVAIGIYNIKPVKRWIGEKDLFGKVLEITEQAIADELAGAANLLMGEGAGGIPVVIIRGLDYYCEGDTSIKESYRPENMDVIKQGLRCLRNKK”, the “soluble on expression in E. coli” value was “not soluble”.
With “MKFILRLGLALLTGFVSVSTASAQAYGTADTNAPELRVPKSVQPAFDYWMRDTWATLGPDGYYYITGTTSTPDRHFPGQRHCWDWNDGLYLWRSKDLKIWEAMGRIWSMEKDGTWQKDPKVYKEGEKYAKKSINNDPMDNRFHAVWAPEMHYIKSAKNWFIVACMNQSAGGRGSFILRSTTGKPEGPYENIEGNEDKAIFPNIDGSLFEDTDGTVYFVGHNHYIARMKPDMSGLAEEIKTLKESKYSPEPYVEGAFIFKYDGKYHLVQAIWAHRTVKGDTYVEKEGLTNKKTRYSYDCIIATADNVYGPYGKRYNAITGGGHNNLFQDKDGNWWATMFFNPRGAQAAEYKVTCRPGLIPMLYENGKFKPNHNYQAK” the “soluble on expression in E. coli” value was “not soluble”.
With “MKFKKYILTGTLALLLSSTGIATIEGNKADASSLDKYLTESQFHDKRIAEELRTLLNKSNVYALAAGSLNPYYKRTIMMNEYRAKAALKKNDFVSMADAKVALEKIYKEIDEIINR” the “soluble on expression in E. coli” value was “not soluble”.
For “MKFLSFIFLVSLCAVTSQINAQAPELPLDKIKLPPGFSISVWANVPDARTMTLGDKGTVFVGSKSAGNVYAITENAGKRQIRIIASKLKMPNGVAFHDGALYVSSVNRILRFDNIENTLDQPLPPRIITADYPKETYHGWRFIAFGPDGWLYVPVGSSCNVCETDLEHYALISRIRPDGSNYEVFAKGVRNTEGFDWHPVTKALWFTDISREWMGDNLPPDELNHASNQGLDFGFPYCHGKEVSDPKLGAKRDCNKFIPPAVELDPHVAPMGMRFYTGTMFPAEYHNGIFIAEHGSWNRSTKIGYRLEWVQLEVNEVARKEIFAEGWLQENEAWGRPVDVLVMPDGALLVSDDMAGVVYRISYDQP”, the “soluble on expression in E. coli” value was “not soluble”.
With “MKFPGKRKSKHYFPVNARDPLLQQIQPENESSVSWVVGIDQTLVDIEAKVDEAFIVRYGLSAGHSLVIEDDVAEALYQELVRNNLITHQFAGGTIGNTMHNYSVLADDRSVLLGVMCSNIEIGGYAYRYLCNTSSRTDLNYLQGVDGAIGRCFTLIGDSGERTFAISPGHMNKLRPESIPEAVIAGASALVLTSYLVRCKPGEPMPDATMKAIEYAKKHDVPVVLTLGTKYVIADNPAWWQEFLQEHVSILAMNEEEGEALTGFADPLSAANKALDWVDLVLCTAGPAGLYMAGFTEEEAKRKTQHPLLPGAIPEFNQFEFSRAMRHQDCVNPLRIYSHIAPYMGGPEKIMNTNGAGDGALAALLHDITANNYHRNNVPNSSKHKCKWLTYSSLAQVCKYANRVSYQVLNQHSPRLTRGLPEREDSLEEAYWDR” the “soluble on expression in E. coli” value was “not soluble”.
For “MKFQCSSCGLRMDSLHFKQEGLMNPKLTSICDICRTRNLNPEEYSNNAVSTFAQSLLYTFVGADKKQDQLNFIVKNKKARKKYEAFLQDYDGNEIARQQIKRSDFNLAVIKSEDGQNDYVPNQDITFEQNLKKMGLEINFQLNEVDFIDRERIRAKYKYRCQYCGRRGHSVDHKDPVSLSHNNSLDNLTLACAECNRIKSDMPYKLFIQLNDQISDINKKLVKYENALGTLREEFEHRRRYLAAQVHLKGIINDPELNEIRKQNKSLQDAIDSLQSDYDDLRQIRKTYFDTGWKLARIKENNDIILEHHHHHH”, the “soluble on expression in E. coli” value was “not soluble”.
For “MKFSTIFGATTVMTAVSAAAVSSVMTTKTITATNGNNVYTKVVTDTADPIISYSTTRTVVVSNSDATYTKVVTEGPDTTSEKSTTKTLTLTNGSGSSTNLYTKTVTQAVESSTSSSSSSSSSSSSASSSGAAPAAFQGASVGALALGLISYLL”, the “soluble on expression in E. coli” value was “soluble”.
For “MKFVAPEQAPEQAEVIKNTPFWPDVDLSEFRSVMRTDGTVTQPRLKQVVLTAISEVNAELYDFRNRQQMLGWRTLAEVPAEMLDGKSERIRHYHNAVFCWARAVLNERYQDYDATASGVKRGEELAEASGDLWRDARWAISRVQDVPHCTVELI”, the “soluble on expression in E. coli” value was “not soluble”.
For “MKFYEEKIDSKRVFEGKMISVRVDRVRLPDGRESTREVVDHPGAVVIVPVLGGKILFVEQYRYPIEQVLLELPAGKLDPGESPEECAKRELEEETGYRAKKLSYLGKIFTTPGFTTEVIHIFAAEDLEKTSQNTDPDEFIEVKEVPIEEALSLLKNAEIEDSKTICALTRFFFAKGVIR”, the “soluble on expression in E. coli” value was “soluble”.
For “MKGGRNRWVTAQESTLALASKCEQFDPDGITLYVFSGRFKRYENVTSAKVNQIFQENDPSGTTDLAAVLKHATDDYFQRKGAGKTKPNGETILVVTDGEPDDRKAVMRVIIEASRRMDKDEELAISFIQVGSDAQATRFLKVLDDELQGAGAKFDICDTVTMEDMEDLSLSEVLLNAITDLEHHHHHH”, the “soluble on expression in E. coli” value was “not soluble”.
In the case of “MKGHCHCGAVRWQSDGKVAWSCYCHCADCRRNCAAPVTAFFGLPHESVTWSGDAPRIYRSTDRVERLFCGTCGTQMAYRNADDRVNIHLYTATLEDPSALPPRFHVFHTARLPWLDLQDDLPRFDRTAG”, the “soluble on expression in E. coli” value is reported as “not soluble”.
With “MKGIILAGGTGSRLYPITKVTNKHLLPVGRYPMIYHAVYKLKQCDITDIMIITGKEHMGDVVSFLGSGQEFGVSFTYRVQDKAGGIAQALGLCEDFVGNDRMVVILGDNIFSDDIRPYVEEFTNQKEGAKVLLQSVDDPERFGVANIQNRKIIEIEEKPKEPKSSYAVTGIYLYDSKVFSYIKELKPSARGELEITDINNWYLKRGVLTYNEMSGWWTDAGTHVSLQRANALARDINFGKQFNGE” the “soluble on expression in E. coli” value was “not soluble”.
With “MKHHHHHHPMSGLVPRGSAMGEPLASASKFSSIVSNDIDMNFRSFKFWVHNDNLMEVKTRILRHLPVLVYANVPSENDDLVNRFESDISNNDEIVGSSSSTSSVEHGLGARSFDPLINTLYFDNEHFELYNDKLLKLNSAPTLRLRWTGQLSDKPDIFLEKKTLIEDEATGKSEFDLTKLQLKQKFINGFIFEGDKKFKEQTLKKLKESGTAGRDLERLEEDFSEIQNFIIKNELQPVFRTVYTRTAFQIPGDDKIRVTIDSNIVFIKEDSFDRERPIRDPNTWHRTDIDANVANPLKFLRGGEYAKFPYSVMEIKVKSSLDSSMSASSMISNVKLPKKHGQWLNDLTNSHLVKEIPKFSIFVQGVASLYGDDEKLDILPFWLPDLETDIRQ” the “soluble on expression in E. coli” value was “soluble”.
In the case of “MKHLLLASLLGSAMAMSSLVMAADTDLKTLEAAAKAEGAVNSLGMPDDWANWGGIWKDLETKYGLKHMDTDMSSAQEIAKFDAEKDNASGDIGDVGAAFGPIAVAKGVTQPYKPTTWEQIPDWAKDKDGHWALAYTGTIAFIVNKNLLHGSEIPKSWADLKTGKYKVSIGDVSTAAQATNGVLAAAIAMKGDESNIEPGLALFTDLAKQKRLSLANPTIQTIEKGEIEVGVVWDFNGLNYKAKMAKPDDYVVLIPSDGSVVSGYTTIINKYAKHPNAAKLAREYTFSDAGQINLAKGNARPIRVEHIKLPDDVKAQLLPHEQYLNAKPIKDADAWEKTSKALPQKWNEQVIIEMN”, the “soluble on expression in E. coli” value is reported as “not soluble”.
With “MKHLNFILAGLFFLCGLCCRAQVLPLEENVVLNTKEGQIKGKLLLPGGVKTCPVVLIIAGSGPTDMDGNSAIGNLRNNSLKFLAEGLAANGIASLRFDKRGIGTSASAGKEEAKLRFEDYVNDVTGWIDYLAKEKRFTTITVAGHSEGALIGMLACQNRPKVKGYISVAGAGRPAYEIIEAQVAAQQNPEAVRKEVASINGSLKNGKEVSDVPAYLQSLYRASVQPYLISWFKYNPRTVIASVKVPVLIVQGKNDIQVSVEDAELLKKGCPAAELLLIDKMNHVLKDCESKAVQQQMLTYGNPSLPVNSTLIASVSTFVKKLK” the “soluble on expression in E. coli” value was “not soluble”.
In the case of “MKHQHQHQHQHQHQMHQTEDYCLASNKVGRCRGSFPRWYYDPTEQICKSFVYGGCLGNKNNYLREEECILACRGV”, the “soluble on expression in E. coli” value is reported as “soluble”.
In the case of “MKIAFLRPGKIGTPANHVYALLDYLREKGAEIREYDLKERDVNDVVKEIEEWKPLFLMDVNATGVIVAERDGKKHILADILGIVHVSVFFEDPLLFFPAFEGVEKPQNYIAFITELKHTDSLTALGIQNISYISPFVDLKQFPESEGEKDIEIAFVGPVVDPQIILNSVSQNYPQEIMPFFIETGEFMFRNPEVHILTAFNYVFGLFNPQMQEQFNKWREQNPSAFMRFLNDITAYTTMRRRMYLLHFLDGMDVKILGDYQGNLFENHEAIKVSSYEQLLKYYSRSNITVYVSPQTYPTGLSVIPLEILYMGSLPLIDFKGAIPGFLKPGEEIETFAPLDRADLEEKIVFYIEENREGINEIVQRGKKAVQERFTVKDRGEFVYNVLSDVKRQYEAAQKGQVN”, the “soluble on expression in E. coli” value is reported as “not soluble”.
In the case of “MKIAITITVLMLSICCSSASSDICPGFLQVLEALLLGSESNYEAALKPFNPASDLQNAGTQLKRLVDTLPQETRINIVKLTEKILTSPLCEQDLRV”, the “soluble on expression in E. coli” value is reported as “soluble”.
